Source: IntAct's records for PubMed 15143060

B1: ADP-ribosylation factor-binding protein GGA1 (Homo sapiens), Q9UJY5 (parent)
chain: MEPAMEPETLEARINRATNPLNKELDWASINGFCEQLNEDFEGPPLATRLLAHKIQSPQEWEAIQALTVLETCMKSCGKRFHDEVGKFRFLNELIKVVSPKYLGSRTSEKVKNKILELLYSWTVGLPEEVKIAEAYQMLKKQGIVKSDPKLPDDTTFPLPPPRPKNVIFEDEEKSKMLARLLKSSHPEDLRAANKLIKEMVQEDQKRMEKISKRVNAIEEVNNNVKLLTEMVMSHSQGGAAAGSSEDLMKELYQRCERMRPTLFRLASDTEDNDEALAEILQANDNLTQVINLYKQLVRGEEVNGDATAGSIPGSTSALLDLSGLDLPPAGTTYPAMPTRPGEQASPEQPSASVSLLDDELMSLGLSDPTPPSGPSLDGTGWNSFQSSDATEPPAPALAQAPSMESRPPAQTSLPASSGLDDLDLLGKTLLQQSLPPESQQVRWEKQQPTPRLTLRDLQNKSSSCSSPSSSATSLLHTVSPEPPRPPQQPVPTELSLASITVPLESIKPSNILPVTVYDQHGFRILFHFARDPLPGRSDVLVVVVSMLSTAPQPIRNIVFQSAVPKVMKVKLQPPSGTELPAFNPIVHPSAITQVLLLANPQKEKVRLRYKLTFTMGDQTYNEMGDVDQFPPPETWGSL

Variants of: B1
Details: with arf1_human ARF1, P84077
Chain of arf1_human ARF1, P84077 (P84077 whole entry): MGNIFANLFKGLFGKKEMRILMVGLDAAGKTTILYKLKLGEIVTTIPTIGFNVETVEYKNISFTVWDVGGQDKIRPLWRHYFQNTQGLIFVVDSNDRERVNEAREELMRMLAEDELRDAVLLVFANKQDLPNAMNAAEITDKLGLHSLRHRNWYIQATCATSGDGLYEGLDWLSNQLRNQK

| Variant | effect of a mutation on the interaction |
| --- | --- |
| L182A;N194A;I197A | decreasing interaction |
